In article PMC7911018:

Biological target: C8-αGFP chimera (anti-GFP CDRs grafted into the C8WT scaffold) fused to mCherry
Test: SEC; gel filtration after IMAC on Superdex 75 10/30 in PBS, pH 7.4, 1 mM DTT

B1: C8-αGFP chimera (anti-GFP CDRs grafted into the C8WT scaffold) fused to mCherry (VHH)
VHH: DVQLQASGGGLAQPGGSLRLSCAASGFPVNRYSMYWVRQAPGKGLEWVSSISSAGDRSSYYADSVKGRFTISRDNAKNTLYLQMNSLKLEDTALYFCAVNVGFEGQGTQVTVSS
Q: For B1, which stoichiometry N is on record?
A: 2
